Results taken from patent publication US20190016816A1 (APTEVO RESEARCH AND DEVELOPMENT, published 2019).

T1: FcγRIIa (CD32a His131) (UniProt P12318 34-317, limits assumed)
T1 construct: whole, on cells; allotype His131 as printed
T1 sequence (looked up): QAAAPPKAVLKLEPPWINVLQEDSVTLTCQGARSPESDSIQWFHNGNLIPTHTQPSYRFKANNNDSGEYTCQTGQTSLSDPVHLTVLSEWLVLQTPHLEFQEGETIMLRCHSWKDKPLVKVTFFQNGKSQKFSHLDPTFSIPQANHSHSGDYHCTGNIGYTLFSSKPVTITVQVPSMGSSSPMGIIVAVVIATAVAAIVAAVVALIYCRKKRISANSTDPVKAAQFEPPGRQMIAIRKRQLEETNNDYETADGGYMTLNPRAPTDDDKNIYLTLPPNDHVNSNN

T2: human 5T4 on cells (human, UniProt Q13641 32-420)
T2 construct: also called TPBG; hu5T4
T2 sequence: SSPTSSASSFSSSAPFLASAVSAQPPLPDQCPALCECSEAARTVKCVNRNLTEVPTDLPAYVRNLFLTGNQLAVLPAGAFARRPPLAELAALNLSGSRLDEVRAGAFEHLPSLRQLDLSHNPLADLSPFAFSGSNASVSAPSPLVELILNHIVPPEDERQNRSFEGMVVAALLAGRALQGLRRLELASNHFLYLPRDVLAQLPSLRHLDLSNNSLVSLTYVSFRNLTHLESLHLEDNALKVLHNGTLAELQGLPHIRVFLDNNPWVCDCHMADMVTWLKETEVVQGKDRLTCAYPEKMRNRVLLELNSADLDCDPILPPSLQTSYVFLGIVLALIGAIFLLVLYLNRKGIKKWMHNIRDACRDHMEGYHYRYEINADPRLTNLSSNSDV


What was measured:
FcγRIIa (CD32a His131) = target: T1, FcγRIIa (CD32a His131); experiment: flow cytometry, CHO cells stably expressing CD32a His131, fluorescent anti-human IgG secondary, MFI (mean)
From the text: (§1) ALG.APV-210 contains mutations introduced to prevent interaction with Fcγ receptors (FcγR) that could lead to FcγR-mediated T-cell activation or ADCC, ADCP, CDC etc. Binding of ALG.APV-210 was therefore tested on CHO cell transfectants stably expressing the following FcγR: FcγRI (CD64), FcγRIIa (CD32a His131), FcγRIIb (CD32b), FcγRIIIa (CD16a Val158 and CD16a Phe158), and FcγRIIIb (CD16b). Untransfected CHO cells were used as negative control. A control human IgG1 molecule was used as a positive control. Different concentrations of ALG.APV-210 or control IgG1 were incubated with the FcγR-expressing cell lines, washed, and labeled with a secondary anti-human IgG reagent. Binding of ALG.APV-210 and the control IgG1 was detected by flow cytometry.

FcγRI (CD64) = target: T3, FcγRI (CD64) (UniProt P12314 16-374, limits assumed); experiment: flow cytometry, CHO cells stably expressing CD64, fluorescent anti-human IgG secondary, MFI (mean)
T3 construct: whole, on cells
From the text: as §1

human 5T4 on cells [1] = target: T2, human 5T4 on cells; experiment: flow cytometry, HT-29 cells, streptavidin-PE, normalized MFI of 2 pooled experiments
Description: (§2) Prior to the FACS staining, all cell lines were characterized for their 5T4 expression levels using a receptor density kit (Quantum Simply Cellular, anti-human IgG, Bangs Laboratories, Inc). Adherent cell lines were cultured according to their supplier's instructions and were harvested from their cell culture flasks using Trypsin/EDTA, counted in R10 medium in a Burker chamber, and diluted in FACS buffer (PBS+0.5% BSA, 0.05% NaN₃) to a concentration of 4×10⁶ cells/mL. 50 μL (0.20×10⁶) of cell solution was added to a 96-well FACS staining plate (Falcon #351190). Cells were incubated for 20 min in 4° C. with 50 μL of the biotinylated ALG.APV-210 (2× final concentration). The antibodies were added in a serial dilution starting at 20 μg/mL titrating down in a 12 step ½ dilution down to 0.010 μg/mL. Following 2× washing with FACS buffer, cells were incubated for 30 min in 4° C. with 100 μL of a secondary antibody (streptavidin-PE, BD #554061, diluted 1/500). […] Cells were analysed for ALG.APV-210 binding using flow cytometry (FACSVerse) by gating on single cells. MFI values (secondary antibody only subtracted) from 1 out of 2 independent experiments, as well as normalized data and EC₅₀-values of pooled data from 2 experiments were determined and plotted using GraphPad Prism 7, non-linear regression log (agonist) vs. normalized response—variable slope.

human CD137 on cells = target: T4, human CD137 on cells (human, UniProt Q07011 24-255); experiment: flow cytometry, MFI of all CD3+CD8+ cells gated from CD3-stimulated human PBMC
T4 construct: also called 4-1BB; TNFRSF9 (CHO-K1/human CD137 cells)
Description: Following 48 h of incubation with or without CD3, human and cynomolgus PBMC were harvested, pooled, recounted and diluted in FACS buffer (PBS+0.5% BSA, 0.05% NaN₃) to a concentration of 5×10⁶ cells/mL. 50 μL (0.25×10⁶ cells) of cell solution was added to a 96-well FACS staining plate (Falcon #351190). Following 10 min of Fc-blocking in RT using Beriglobin (hIgG, 200 μg/mL), cells were washed in FACS buffer and then incubated for 1 h in 4° C. with 100 μL of the biotinylated ALG.APV-210 or negative control. The antibodies were added in a serial dilution starting either at 5 μg/mL titrating down in a 12 step ⅓ dilution down to […] (exp 1) or 1 μg/mL titrating down in a 12 step ½ dilution down to 0.0005 μg/mL (exp 2). […] Cells were analysed for ALG.APV-210 binding using flow cytometry by gating on viable, single cells expressing CD3 and CD8. MFI values (FMO subtracted) from 2 independent experiments as well as normalized pooled data from 2 experiments and EC₅₀-values were determined and plotted using GraphPad Prism 7, non-linear regression log (agonist) vs. normalized response—variable slope, n=6 donors/group.

human 5T4 on cells [2] = target: T2, human 5T4 on cells; experiment: flow cytometry, BxPC-3 cells, streptavidin-PE, normalized MFI of 2 pooled experiments
Description: as §2

T4 sequence (Q07011 24-255 limits assumed): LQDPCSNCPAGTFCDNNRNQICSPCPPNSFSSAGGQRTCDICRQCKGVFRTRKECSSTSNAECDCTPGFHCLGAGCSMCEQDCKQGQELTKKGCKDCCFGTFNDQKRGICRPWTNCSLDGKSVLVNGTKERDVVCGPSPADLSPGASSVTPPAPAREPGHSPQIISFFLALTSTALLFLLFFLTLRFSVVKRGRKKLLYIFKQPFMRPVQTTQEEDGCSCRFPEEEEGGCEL
T3 sequence (P12314 16-374 limits assumed): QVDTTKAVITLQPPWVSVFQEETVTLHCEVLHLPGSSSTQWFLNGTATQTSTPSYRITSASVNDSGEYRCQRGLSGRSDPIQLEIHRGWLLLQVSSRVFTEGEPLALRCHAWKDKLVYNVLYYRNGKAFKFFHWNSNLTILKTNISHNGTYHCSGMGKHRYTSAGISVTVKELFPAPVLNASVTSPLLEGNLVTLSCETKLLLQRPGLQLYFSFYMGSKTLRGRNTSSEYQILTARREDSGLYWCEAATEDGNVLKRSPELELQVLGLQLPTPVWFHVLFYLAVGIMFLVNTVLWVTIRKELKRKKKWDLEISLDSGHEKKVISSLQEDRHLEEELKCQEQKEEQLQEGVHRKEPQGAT

| binding result (FcγRIIa (CD32a His131)) | binding result (FcγRI (CD64)) | Binder | EC50 (human 5T4 on cells [1]) | EC50 (human CD137 on cells) | EC50 (human 5T4 on cells [2]) |
| --- | --- | --- | --- | --- | --- |
| no binding (tested: 1000 nM) | no binding (tested: 1000 nM) | ALG.APV-210 (bispecific antibody, Optimized ADAPTIR scFv-Fc-scFv homodimer with stabilizing disulfide in the 1210 scFv; also called 5T4-CD137 bispecific antibody) EVQLLESGGGLVQPGGSLRLSCAASGFTFSHGSMYWVRQAPGKGLEWVSSISSGSGSTYYADSVKGRFTISHDNSKNTLYLQMNSLRAEDTAVYYCARSSYYGSYYSIDYWGQGTLVTVSSGGGGSGGGGSGGGGSGGGGSDIQMTQSPSSLSASVGDRVTITCRASQSISSYLNWYQQKPGKAPKLLIYAASSLQSGVPSRFSGSGSGTDFTLTISSLQPEDFATYYCQQYYDNLPTFGQGTKLEIKEPKSSDKTHTCPPCPAPEAAGAPSVFLFPPKPKDTLMISRTPEVTCVVVDVSHEDPEVKFNWYVDGVEVHNAKTKPREEQYNSTYRVVSVLTVLHQDWLNGKEYKCAVSNKALPAPIEKTISKAKGQPREPQVYTLPPSRDELTKNQVSLTCLVKGFYPSDIAVEWESNGQPENNYKTTPPVLDSDGSFFLYSKLTVDKSRWQQGNVFSCSVMHEALHNHYTQKSLSLSPGSGGGGSGGGGSGGGGSPSEVQLLESGGGLVQPGGSLRLSCAASGFTFSSYAMSWVRQAPGKCLEWVSAISGSGGSTYYADSVKGRFTISRDNSKNTLYLQMNSLRAEDTAVYYCARYYGGYYSAWMDYWGQGTLVTVSSGGGGSGGGGSGGGGSGGGGSDIQMTQSPSSLSASVGDRVTITCRASQSISSFLNWYQQKPGKAPKLLIYAASSLQSGVPSRFSGSGSGTDFTLTISSLQPEDSATYYCQQTYGYLHTFGCGTKLEIKR | – | – | – |
| – | – | biotinylated ALG.APV-210 (bispecific antibody, also called ALG.APV-210 (biotinylated for FACS detection)) EVQLLESGGGLVQPGGSLRLSCAASGFTFSHGSMYWVRQAPGKGLEWVSSISSGSGSTYYADSVKGRFTISHDNSKNTLYLQMNSLRAEDTAVYYCARSSYYGSYYSIDYWGQGTLVTVSSGGGGSGGGGSGGGGSGGGGSDIQMTQSPSSLSASVGDRVTITCRASQSISSYLNWYQQKPGKAPKLLIYAASSLQSGVPSRFSGSGSGTDFTLTISSLQPEDFATYYCQQYYDNLPTFGQGTKLEIKEPKSSDKTHTCPPCPAPEAAGAPSVFLFPPKPKDTLMISRTPEVTCVVVDVSHEDPEVKFNWYVDGVEVHNAKTKPREEQYNSTYRVVSVLTVLHQDWLNGKEYKCAVSNKALPAPIEKTISKAKGQPREPQVYTLPPSRDELTKNQVSLTCLVKGFYPSDIAVEWESNGQPENNYKTTPPVLDSDGSFFLYSKLTVDKSRWQQGNVFSCSVMHEALHNHYTQKSLSLSPGSGGGGSGGGGSGGGGSPSEVQLLESGGGLVQPGGSLRLSCAASGFTFSSYAMSWVRQAPGKCLEWVSAISGSGGSTYYADSVKGRFTISRDNSKNTLYLQMNSLRAEDTAVYYCARYYGGYYSAWMDYWGQGTLVTVSSGGGGSGGGGSGGGGSGGGGSDIQMTQSPSSLSASVGDRVTITCRASQSISSFLNWYQQKPGKAPKLLIYAASSLQSGVPSRFSGSGSGTDFTLTISSLQPEDSATYYCQQTYGYLHTFGCGTKLEIKR | 12 nM | 0.235 nM | 20 nM |
